Laboratory results as given in article PMC5826319, “Control of the Nucleotide Cycle in Photoreceptor Cell Extracts by Retinal Degeneration Protein 3” (Frontiers in Molecular Neuroscience, 2018).

Tests used:
[1] = molecular target: T1, Guanylate kinase (GUK) from porcine brain (porcine, UniProt P31006 1-198); test: cell-based or functional assay
T1 sequence (looked up): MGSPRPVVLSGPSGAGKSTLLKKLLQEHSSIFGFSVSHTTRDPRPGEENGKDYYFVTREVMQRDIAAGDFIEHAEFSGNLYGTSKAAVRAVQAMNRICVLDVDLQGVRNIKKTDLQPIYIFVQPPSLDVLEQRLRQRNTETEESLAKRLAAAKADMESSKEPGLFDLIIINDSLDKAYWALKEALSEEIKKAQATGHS

[2] = molecular target: T2, Guanylate kinase (GUK) in a soluble extract from bovine rod outer segments (bovine (endogenous in rod outer …, UniProt P46195 1-198)); test: cell-based or functional assay
T2 sequence (looked up): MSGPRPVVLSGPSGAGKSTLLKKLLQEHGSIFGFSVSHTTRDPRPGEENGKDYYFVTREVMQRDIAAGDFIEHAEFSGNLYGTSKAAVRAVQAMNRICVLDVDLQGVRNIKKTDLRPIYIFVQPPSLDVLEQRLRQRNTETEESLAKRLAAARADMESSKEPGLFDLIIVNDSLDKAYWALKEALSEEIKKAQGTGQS

[3] = molecular target: the molecule itself; test: cross-linking; purified RD3 (0.1 ug) with 0.5 mM BS3 for 2 min at room temperature, stopped with Tris-HCl pH 7.5; SDS-PAGE and anti-RD3 immunoblot; monomer to dimer
[4] = molecular target: T3, Guanylate kinase (GUK), mouse, isoform 1 (mouse, UniProt Q64520-2 1-219); test: back-scattering interferometry (BSI); free solution, label-free, nothing immobilised; RD3 (or TEV protease) 0 to 300 nM titrated into lysate supernatant of stable GUK HEK-293T cells (0.1 ug/ul) in 20 mM phosphate buffer pH 7.0, 150 mM NaCl, 0.005% Tween 20; overnight at 4°C; titration of lysate without GUK subtracted; apparent KD, Hill fit; conditions: one partner purified
T3 construct: it gives an expected theoretical mass of 22 kDa, which fits about 198 aa better than the printed 219 aa; also called recombinant GUK; GUK1
T3 sequence (looked up): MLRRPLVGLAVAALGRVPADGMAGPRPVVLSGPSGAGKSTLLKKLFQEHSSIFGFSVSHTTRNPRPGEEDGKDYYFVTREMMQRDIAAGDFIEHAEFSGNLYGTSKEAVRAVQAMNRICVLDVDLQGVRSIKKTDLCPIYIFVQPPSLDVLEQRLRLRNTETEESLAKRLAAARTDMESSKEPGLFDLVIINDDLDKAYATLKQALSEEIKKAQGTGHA

B1: Retinal degeneration protein 3 (RD3), human, His6-tagged (natural protein, UniProt Q7Z3Z2 1-195, looked up)
chain: MSLISWLRWNEAPSRLSTRSPAEMVLETLMMELTGQMREAERQQRERSNAVRKVCTGVDYSWLASTPRSTYDLSPIERLQLEDVCVKIHPSYCGPAILRFRQLLAEQEPEVQEVSQLFRSVLQEVLERMKQEEEAHKLTRQWSLRPRGSLATFKTRARISPFASDIRTISEDVERDTPPPLRSWSMPEFRAPKAD
notes: The forward primer puts a few extra vector or primer residues before the first Met; also called RD3 - His6; His-tagged RD3
Q: What does the source list for B1?
A: guanylate kinase activity (5'-GMP to GDP, coupled spectrophotometric assay at 340 nm), RD3 0 to 3.5 uM [1]: ~10 fold; guanylate kinase activity (5'-GMP to GDP, coupled spectrophotometric assay at 340 nm), RD3 0 to 3.5 uM [2]: 2 fold; stoichiometry N [3]: 2; Kd [4]: ~100 nM
